Target: T1, β-catenin (Homo sapiens, UniProt P35222)
T1 construct: expressed in transfected cells; host or cells: human embryonic kidney 293 cells, transient, pervanadate-treated, used as lysate; the GST-PTP LARi partner was made in E. coli
T1 sequence (P35222 2-781): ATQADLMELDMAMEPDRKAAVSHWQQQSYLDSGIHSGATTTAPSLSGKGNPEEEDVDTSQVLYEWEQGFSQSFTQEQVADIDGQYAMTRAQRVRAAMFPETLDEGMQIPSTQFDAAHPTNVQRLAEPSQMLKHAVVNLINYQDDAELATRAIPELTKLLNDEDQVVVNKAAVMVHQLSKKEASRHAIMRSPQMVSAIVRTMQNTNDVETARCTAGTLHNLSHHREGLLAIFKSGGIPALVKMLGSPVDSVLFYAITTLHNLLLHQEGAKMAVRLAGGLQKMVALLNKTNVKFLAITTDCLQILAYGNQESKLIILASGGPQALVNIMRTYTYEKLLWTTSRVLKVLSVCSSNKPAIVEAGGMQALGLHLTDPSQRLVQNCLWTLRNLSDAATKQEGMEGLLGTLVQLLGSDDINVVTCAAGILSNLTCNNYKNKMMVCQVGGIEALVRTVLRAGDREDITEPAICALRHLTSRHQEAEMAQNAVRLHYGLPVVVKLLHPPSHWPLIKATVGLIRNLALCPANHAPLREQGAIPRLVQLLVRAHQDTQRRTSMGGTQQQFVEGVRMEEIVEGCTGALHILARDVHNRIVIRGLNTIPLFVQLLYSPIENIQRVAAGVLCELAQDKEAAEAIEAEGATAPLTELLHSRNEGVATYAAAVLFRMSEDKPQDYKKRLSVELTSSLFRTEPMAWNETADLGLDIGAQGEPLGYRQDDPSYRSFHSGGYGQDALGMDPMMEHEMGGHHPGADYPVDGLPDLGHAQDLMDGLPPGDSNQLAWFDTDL
Experiment: In vitro binding assay (GST pull-down), β-catenin
Details: lysates of pervanadate treated 293 cells overexpressing β-catenin
Experimental: After 24 h of serum starvation, the cells were stimulated with pervanadate for 10 minutes before lysis. Equal amounts of lysats were incubated with the GST-PTP LAR cytoplasmic fusion protein (GST-PTP LARi) or a threefold molar excess of GST. Lysates of control vector transfected 293 cells were incubated with the GST-PTP LAR cytoplasmic fusion protein (GST-PTP LARi). Complexes were immobilized on glutathione-sepharose, and precipitates were separated by SDS-PAGE. Bound proteins were analyzed by Western blotting with an anti-β-catenin antibody (left) or an antibody against plakoglobin (right). Arrows indicate the proteins of interest. Molecular mass standards in kilodaltons are shown on the left. […]
To investigate the potential association of PTP LAR with the cadherin/catenin-complex in intact cells, subconfluent human MCF7 cells were stimulated with EGF, were lysed, and were immunoprecipitated with antibodies either against PTP LAR or the cadherin/catenin-complex. Western blotting analysis with specific antibodies to β-catenin and E-cadherin (FIG. 5A) or plakoglobin and E-cadherin (FIG. 5B) detected these proteins in anti-human PTP LAR immunoprecipitates with the monoclonal antibody 11.1A against the extracellular domain of human PTP LAR and vice versa. […]

- association with β-catenin: associate specifically
B1: GST-PTP LAR cytoplasmic: GST fusion protein comprising the entire cytoplasmic domain (amino acids 1259-1881) of human PTP LAR (protein)
chain: PEMLWVTGPVLAVILIILIVIAILLFKRKRTHSPSSKDEQSIGLKDSLLAHSSDPVEMRRLNYQTPGMRDHPPIPITDLADNIERLKANDGLKFSQEYESIDPGQQFTWENSNLEVNKPKNRYANVIAYDHSRVILTSIDGVPGSDYINANYIDGYRKQNAYIATQGPLPETMGDFWRMVWEQRTATVVMMTRLEEKSRVKCDQYWPARGTETCGLIQVTLLDTVELATYTVRTFALHKSGSSEKRELRQFQFMAWPDHGVPEYPTPILAFLRRVKACNPLDAGPMVVHCSAGVGRTGCFIVIDAMLERMKHEKTVDIYGHVTCMRSQRNYMVQTEDQYVFIHEALLEAATCGHTEVPARNLYAHIQKLGQVPPGESVTAMELEFKLLASSKAHTSRFISANLPCNKFKNRLVNIMPYELTRVCLQPIRGVEGSDYINASFLDGYRQQKAYIATQGPLAESTEDFWRMLWEHNSTIIVMLTKLREMGREKCHQYWPAERSARYQYFVVDPMAEYNMPQYILREFKVTDARDGQSRTIRQFQFTDWPEQGVPKTGEGFIDFIGQVHKTKEQFGQDGPITVHCSAGVGRTGVFITLSIVLERMRYEGVVDMFQTVKTLRTQRPAM
